Test system: MS2 coat protein
Test: apparent KD of MS2 coat protein; designed switch direction (-1 OFF switch, 1 ON switch): -1; higher = weaker reporter binding
Method in brief: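 Each step of the titration lasted 0.8–1.5 h at the lowest concentration and 10–20 min at the highest. The protein, SNAP-549-labelled MS2 coat protein, went from 0.7 or 1.5 nM doubling to 3 µM over RNA switches transcribed on Illumina chips by stalled E. coli RNA polymerase. Normalised cluster fluorescence was curve-fitted, and the per-design median over clusters is given as apparent KD.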

[1] = input ligand: microRNA oligo, concentration not stated
[2] = Eterna round: R95, input ligand: FMN 200 uM
[3] = Eterna round: R95, input ligand: microRNA oligo, concentration not stated
[4] = Eterna round: R95, input ligand: none

| Sequence | apparent KD of MS2 coat protein (input ligand: FMN 200 uM) [nM] | apparent KD of MS2 coat protein [1] [nM] | apparent KD of MS2 coat protein (input ligand: none) [nM] | apparent KD of MS2 coat protein [2] [nM] | apparent KD of MS2 coat protein [3] [nM] | apparent KD of MS2 coat protein [4] [nM] |
| --- | --- | --- | --- | --- | --- | --- |
| AGUACUAACACGAAAGUGUUAGUUCAAUAAGCUUGUGAAACAUGAGGAUCACCCAUGUCCUCAUAAGCUCGUCUUAU [salish99_TOv2_r3_040] (Eterna round: R96, puzzle: Sensor v3, turn-off variant 2) | 15.2 | 461 | 17.5 | – | – | – |
| AGUACUAACACGAAAGUGUUAGUUCAAUAAGCUUGUGAAACAUGAGGAUCACCCAUGUCCUCAUAAGCUCGUCUUAU [salish99_TOv2_r3_040] (puzzle: Sensor v3, turn-off variant 2) | – | – | – | 15.8 | 856 | 15 |
| AGUACUAACACGAACGUGUUAGUACAAUAAGCUUGUGAAACAUGAGGAUCACCCAUGUCCUCAUAAGCUCGUCUUAU [salish99_TOv2_r3_034] (puzzle: Sensor v3, turn-off variant 2) | – | – | – | 17.9 | 775 | 16.2 |
| AGUACUAACACGACAGUGUUAGUACAAUAAGCUUGUGAAACAUGAGGAUCACCCAUGUCCUCAUAAGCUCGUCUUAU [salish99_TOv2_r3_031] (Eterna round: R96, puzzle: Sensor v3, turn-off variant 2) | 15.4 | 431 | 17.2 | – | – | – |
| AGUACUAACACGACAGUGUUAGUACAAUAAGCUUGUGAAACAUGAGGAUCACCCAUGUCCUCAUAAGCUCGUCUUAU [salish99_TOv2_r3_031] (puzzle: Sensor v3, turn-off variant 2) | – | – | – | 18.8 | 867 | 15.2 |
| AGUACUAACACGAUAGUGUUAGUACAAUAAGCUUGUGAAACAUGAGGAUCACCCAUGUCCUCAUAAGCUCGUCUUAU [salish99_TOv2_r3_030] (Eterna round: R96, puzzle: Sensor v3, turn-off variant 2) | 15.1 | 507 | 17.3 | – | – | – |
| AGUACUAACACGAUAGUGUUAGUACAAUAAGCUUGUGAAACAUGAGGAUCACCCAUGUCCUCAUAAGCUCGUCUUAU [salish99_TOv2_r3_030] (puzzle: Sensor v3, turn-off variant 2) | – | – | – | 14.5 | 993 | 14.6 |
| AGUACUAACACGAUAGUGUUAGUACUAUAAGCUUGUGUUACAUGAGGAUCACCCAUGUCCUCAUAAGCUCGUCUUAG [Mat - Sensor v3 - Turn-off var 2 - D66] (puzzle: Sensor v3, turn-off variant 2) | – | – | – | 39.8 | 83.2 | 41.6 |
| AGUACUAACACGUAAGUGUUAGUACAAUAAGCUUGUGAAACAUGAGGAUCACCCAUGUCCUCAUAAGCUCGUCUUAU [salish99_TOv2_r3_025] (puzzle: Sensor v3, turn-off variant 2) | – | – | – | 17.9 | 659 | 15.4 |
| AGUACUAUCACGAAAGUGAUAGUACAAAUAAGCUUUAGAACAUGAGGAUCACCCAUGUCCUCUUAAGCUCGUCUUAU [Mat - Sensor v2 -ver2- JL mod - D56] (Eterna round: R96, puzzle: Sensor v2, turn-off variant 2) | 14.8 | 143 | 17.1 | – | – | – |
| AGUACUAUCACGAAAGUGAUAGUACAAAUAGCAAGUGAAACAUGAGGAUCACCCAUGUCCUCAUUUGCUCGUCUUAU [Mat - Sensor v2 -ver2- JL mod - D65] (Eterna round: R96, puzzle: Sensor v2, turn-off variant 2) | 12.1 | 409 | 14.3 | – | – | – |
| AGUACUAUGCGAGCUGACUUGCGUAGUGCAGCAAGUGAAACAUGAGGAUCACCCAUGUCCUCAUUUGCUCGUCUUAU [Mat - Sensor v3 - Turn-off var 2 - D1] (Eterna round: R96, puzzle: Sensor v3, turn-off variant 2) | 31.1 | 662 | 34.1 | – | – | – |
| AGUACUAUGCGAGCUGACUUGCGUAGUGCAGCAAGUGAAACAUGAGGAUCACCCAUGUCCUCAUUUGCUCGUCUUAU [Mat - Sensor v3 - Turn-off var 2 - D1] (puzzle: Sensor v3, turn-off variant 2) | – | – | – | 35.3 | 453 | 30.8 |
| AGUACUCACACGAAAGUGUUAGUACAAUAAGCUUGUGAAACAUGAGGAUCACCCAUGUCCUCAUAAGCUCGUCUUAU [salish99_TOv2_r3_018] (Eterna round: R96, puzzle: Sensor v3, turn-off variant 2) | 16.2 | 430 | 18.1 | – | – | – |
| AGUACUCACACGAAAGUGUUAGUACAAUAAGCUUGUGAAACAUGAGGAUCACCCAUGUCCUCAUAAGCUCGUCUUAU [salish99_TOv2_r3_018] (puzzle: Sensor v3, turn-off variant 2) | – | – | – | 17.6 | 1380 | 17.1 |
| AGUACUGACACGAAAGUGUUAGUACAAUAAGCUUGUGAAACAUGAGGAUCACCCAUGUCCUCAUAAGCUCGUCUUAU [salish99_TOv2_r3_017] (Eterna round: R96, puzzle: Sensor v3, turn-off variant 2) | 15.9 | 469 | 17.9 | – | – | – |
| AGUACUGACACGAAAGUGUUAGUACAAUAAGCUUGUGAAACAUGAGGAUCACCCAUGUCCUCAUAAGCUCGUCUUAU [salish99_TOv2_r3_017] (puzzle: Sensor v3, turn-off variant 2) | – | – | – | 16 | 1200 | 13.8 |
| AGUACUGGCGCGUCGGUGUUGGUACAAUAAGCUUGUGAAACAUGAGGAUCACCCAUGUCCUCAUAAGCUCGUCUUAU [salish99_TOv2_r2_083] (puzzle: Sensor v3, turn-off variant 2) | – | – | – | 16.9 | 600 | 16.5 |
| AGUACUUACUCGAUAGUGUUAGUACAAUAAGCUUGUGAAACAUGAGGAUCACCCAUGUCCUCAUUAGCUCGUCUUAU [salish99_TOv2_r3_1006] (puzzle: Sensor v3, turn-off variant 2) | – | – | – | 206 | 758 | 199 |
| AGUACUUUCACGAAAGUGAAAGUACAAAUGAGCUUUUGAACAUGAGGAUCACCCAUGUCCUCAUAAGCUCGUCUUAA [Mat - Sensor v2 - var 2 - Mod - D175] (Eterna round: R96, puzzle: Sensor v2, turn-off variant 2) | 28.3 | 458 | 30.7 | – | – | – |
| AGUAGAUCUACGCUUGCGUGGAUCUGCUAUGCAGGUGUUACAUGAGGAUCACCCAUGUCCUCAUUUGCUCGUCUUAU [JL turnoff v2 99.14] (puzzle: Sensor v3, turn-off variant 2) | – | – | – | 133 | 356 | 138 |
| AGUAGUUACGCAGGAUAUGAGGAUCACCCAUAGAAGGAUAUCGAAAGAGAAGGUCUGAGGAUUACCCAGAAGGGCGUGACUACA [pwkr exNG2 2xF5 2xFMN.5] (Eterna round: R96, puzzle: Exclusion NG 2) | 647 | 113 | 136 | – | – | – |
| AGUAGUUGUUUCCGUUCUUACAUGAGGAUCACCCAUGUUUCUUGACGUGCACGCGAUGCUCGUCAGACUACCAGAUG [salish99_TOv1_r3_057] (Eterna round: R96, puzzle: Sensor v3, turn-off variant 1) | 60.5 | 37.4 | 57 | – | – | – |
| AGUAGUUGUUUCCGUUCUUACAUGAGGAUCACCCAUGUUUCUUGACGUGCACGCGAUGCUCGUCAGACUACCAGAUG [salish99_TOv1_r3_057] (puzzle: Sensor v3, turn-off variant 1) | – | – | – | 57.6 | 87.8 | 81.7 |
| AGUAGUUGUUUCCGUUCUUACAUGAGGAUCACCCAUGUUUCUUGUCGUGCUCGCGUUGCUCGUCAGACUACCUGUUG [salish99_TOv1_r3_062] (puzzle: Sensor v3, turn-off variant 1) | – | – | – | 69.8 | 88.6 | 105 |
| AGUAUCUAUCAUGAGAGUGGUAGGUACAACAGGUGGGAAACAUGAGGAUCACCCAUGUCCUCAUUUGCUCGUCUUAU [Grok-var2-01] (puzzle: Sensor v3, turn-off variant 2) | – | – | – | 550 | 144 | 764 |
| AGUAUGCGUGUCAGGAUAUCAAUGGCUCUACCCAAUGAGAAGGGACAUGAGGAUCACCCAUGUAUGAGCCUAAA [Zatelaveus] (puzzle: Brourd's mod of Exclusion 4) | – | – | – | 15.9 | 14.1 | 14.5 |
| AGUCAGGCGGUAGGAUAUCCAUAUCGAGUGACCCUUUCAUAACAUGAGGAUCACCCAUGUCGGUGGGAGAAGGGCCGUACGGCA [Mat - Exclusion NG 2 - Mod of JL - D68] (Eterna round: R96, puzzle: Exclusion NG 2) | 116 | 52.3 | 89.3 | – | – | – |
| AGUCAGGCGGUAGGAUAUCCAUAUCGAGUGACCCUUUCAUAACAUGAGGAUCACCCAUGUCGGUGGGAGAAGGGCCGUACGGCG [JL ViennaUCT Atra mod 4] (Eterna round: R96, puzzle: Exclusion NG 2) | 203 | 84.2 | 103 | – | – | – |
